Data as given in PMC10786891, “Massively parallel profiling of RNA-targeting CRISPR-Cas13d”.

T1: EsCas13d, nuclease-dead (Eubacterium siraeum, UniProt B0MS50, R295A;H300A;R849A;H854A)
T1 sequence: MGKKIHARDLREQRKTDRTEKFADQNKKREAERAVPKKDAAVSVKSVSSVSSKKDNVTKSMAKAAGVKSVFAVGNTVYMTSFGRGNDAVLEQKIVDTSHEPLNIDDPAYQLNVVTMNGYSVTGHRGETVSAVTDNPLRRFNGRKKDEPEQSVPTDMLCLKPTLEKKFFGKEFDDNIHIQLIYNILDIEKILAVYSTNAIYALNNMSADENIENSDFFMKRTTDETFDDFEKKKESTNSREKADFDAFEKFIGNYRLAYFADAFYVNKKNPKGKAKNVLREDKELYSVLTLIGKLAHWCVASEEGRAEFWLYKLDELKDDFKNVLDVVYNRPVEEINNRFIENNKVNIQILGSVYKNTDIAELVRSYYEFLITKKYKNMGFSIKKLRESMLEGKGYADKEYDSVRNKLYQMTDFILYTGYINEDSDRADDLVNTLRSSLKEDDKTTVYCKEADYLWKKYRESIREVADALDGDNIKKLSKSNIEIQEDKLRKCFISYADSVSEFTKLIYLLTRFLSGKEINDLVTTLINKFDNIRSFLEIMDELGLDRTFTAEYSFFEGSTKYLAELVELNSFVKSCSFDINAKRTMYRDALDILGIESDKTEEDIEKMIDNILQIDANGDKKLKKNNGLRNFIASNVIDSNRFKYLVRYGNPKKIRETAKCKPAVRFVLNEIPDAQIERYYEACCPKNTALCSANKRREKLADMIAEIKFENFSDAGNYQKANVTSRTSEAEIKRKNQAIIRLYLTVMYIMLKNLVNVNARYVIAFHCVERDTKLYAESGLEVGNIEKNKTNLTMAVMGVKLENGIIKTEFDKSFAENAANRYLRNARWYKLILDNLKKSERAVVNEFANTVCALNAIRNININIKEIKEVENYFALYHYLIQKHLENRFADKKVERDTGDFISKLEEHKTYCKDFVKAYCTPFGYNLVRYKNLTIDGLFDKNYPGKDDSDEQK


target: T1, EsCas13d, nuclease-dead; test: crRNA (strand 1, pre-loaded); Mg2+; 40 mM Tris-HCl pH 7.5, 150 mM NaCl, 6 mM MgCl2, 1 mM DTT, 0.1% Tween-20, 0.2 mg/ml BSA; 25 C; 10 min per concentration, then washed; conditions: tags: His6-TwinStrep-SUMO cleaved; N-terminal SNAP kept (SNAP-Surface 488); label: 3' end held by stalled T7 RNA polymerase

| Binder | Kd |
| --- | --- |
| target 1 insA 3' of 21,insA 3' of 21 (mixed) RNA 1: CACCCGUGCAAAAAUGCAGGGGUCUAAAACUGAGCGGAUAACCUCUCUAUGG RNA 2: GGGAAUGGAUCCACAUCUACGAAUUCGUACCAAAUAGAGAGGUUAUCCGCUCACCGAGAUCGGAAGAGCACACGU | 15.4 ± 0.8 nM |
| target 1 insA 3' of 7,insC 3' of 3 (mixed) RNA 1: CACCCGUGCAAAAAUGCAGGGGUCUAAAACUGAGCGGAUAACCUCUCUAUGG RNA 2: GGGAAUGGAUCCACAUCUACGAAUUCGUACCAUAGAGAGGUUAUCACGCUCCACCGAGAUCGGAAGAGCACACGU | 6.32 ± 0.25 nM |
| target 1 insA 3' of 17,insA 3' of 3 (mixed) RNA 1: CACCCGUGCAAAAAUGCAGGGGUCUAAAACUGAGCGGAUAACCUCUCUAUGG RNA 2: GGGAAUGGAUCCACAUCUACGAAUUCGUACCAUAGAAGAGGUUAUCCGCUACACCGAGAUCGGAAGAGCACACGU | 11.7 ± 0.4 nM |
| target 1 MT 5'PFS GAA 3'PFS CAU (mixed) RNA 1: CACCCGUGCAAAAAUGCAGGGGUCUAAAACUGAGCGGAUAACCUCUCUAUGG RNA 2: GGGAAUGGAUCCACAUCUACGAAUUCGAACCAUAGAGAGGUUAUCCGCUCACAUAGAUCGGAAGAGCACACGU | ~95 nM |
| target 1 MT 5'PFS UAG 3'PFS UUC (mixed) RNA 1: CACCCGUGCAAAAAUGCAGGGGUCUAAAACUGAGCGGAUAACCUCUCUAUGG RNA 2: GGGAAUGGAUCCACAUCUACGAAUUCUAGCCAUAGAGAGGUUAUCCGCUCAUUCAGAUCGGAAGAGCACACGU | 18.9 ± 3.85 nM |
| target 1 MT 5'PFS UAG 3'PFS UUA (mixed) RNA 1: CACCCGUGCAAAAAUGCAGGGGUCUAAAACUGAGCGGAUAACCUCUCUAUGG RNA 2: GGGAAUGGAUCCACAUCUACGAAUUCUAGCCAUAGAGAGGUUAUCCGCUCAUUAAGAUCGGAAGAGCACACGU | 18.4 ± 3.7 nM |
| target 1 MT 5'PFS UAG 3'PFS UUG (mixed) RNA 1: CACCCGUGCAAAAAUGCAGGGGUCUAAAACUGAGCGGAUAACCUCUCUAUGG RNA 2: GGGAAUGGAUCCACAUCUACGAAUUCUAGCCAUAGAGAGGUUAUCCGCUCAUUGAGAUCGGAAGAGCACACGU | 12.9 ± 1.1 nM |
| target 1 MT 5'PFS UAG 3'PFS UUU (mixed) RNA 1: CACCCGUGCAAAAAUGCAGGGGUCUAAAACUGAGCGGAUAACCUCUCUAUGG RNA 2: GGGAAUGGAUCCACAUCUACGAAUUCUAGCCAUAGAGAGGUUAUCCGCUCAUUUAGAUCGGAAGAGCACACGU | 23.4 ± 3.05 nM |
| target 1 MT 5'PFS UGC 3'PFS AAC (mixed) RNA 1: CACCCGUGCAAAAAUGCAGGGGUCUAAAACUGAGCGGAUAACCUCUCUAUGG RNA 2: GGGAAUGGAUCCACAUCUACGAAUUCUGCCCAUAGAGAGGUUAUCCGCUCAAACAGAUCGGAAGAGCACACGU | ~40 nM |
| target 1 insA 3' of 8,insA 3' of 2 (mixed) RNA 1: CACCCGUGCAAAAAUGCAGGGGUCUAAAACUGAGCGGAUAACCUCUCUAUGG RNA 2: GGGAAUGGAUCCACAUCUACGAAUUCGUACCAUAGAGAGGUUAUACCGCUCAACCGAGAUCGGAAGAGCACACGU | 17.9 ± 0.6 nM |
| target 1 MT 5'PFS UGC 3'PFS AAA (mixed) RNA 1: CACCCGUGCAAAAAUGCAGGGGUCUAAAACUGAGCGGAUAACCUCUCUAUGG RNA 2: GGGAAUGGAUCCACAUCUACGAAUUCUGCCCAUAGAGAGGUUAUCCGCUCAAAAAGAUCGGAAGAGCACACGU | ~50 nM |
| target 1 MT 5'PFS CUG 3'PFS CAC (mixed) RNA 1: CACCCGUGCAAAAAUGCAGGGGUCUAAAACUGAGCGGAUAACCUCUCUAUGG RNA 2: GGGAAUGGAUCCACAUCUACGAAUUCCUGCCAUAGAGAGGUUAUCCGCUCACACAGAUCGGAAGAGCACACGU | 5.25 ± 1.6 nM |
| target 1 MT 5'PFS GUG 3'PFS GCU (mixed) RNA 1: CACCCGUGCAAAAAUGCAGGGGUCUAAAACUGAGCGGAUAACCUCUCUAUGG RNA 2: GGGAAUGGAUCCACAUCUACGAAUUCGUGCCAUAGAGAGGUUAUCCGCUCAGCUAGAUCGGAAGAGCACACGU | 7 ± 0.7 nM |
| target 1 MT 5'PFS AAG 3'PFS UCU (mixed) RNA 1: CACCCGUGCAAAAAUGCAGGGGUCUAAAACUGAGCGGAUAACCUCUCUAUGG RNA 2: GGGAAUGGAUCCACAUCUACGAAUUCAAGCCAUAGAGAGGUUAUCCGCUCAUCUAGAUCGGAAGAGCACACGU | 12.1 ± 3.65 nM |
| target 1 MT 5'PFS AAU 3'PFS CAU (mixed) RNA 1: CACCCGUGCAAAAAUGCAGGGGUCUAAAACUGAGCGGAUAACCUCUCUAUGG RNA 2: GGGAAUGGAUCCACAUCUACGAAUUCAAUCCAUAGAGAGGUUAUCCGCUCACAUAGAUCGGAAGAGCACACGU | 100 ± 45 nM |
| target 1 MT 5'PFS GGC 3'PFS UUG (mixed) RNA 1: CACCCGUGCAAAAAUGCAGGGGUCUAAAACUGAGCGGAUAACCUCUCUAUGG RNA 2: GGGAAUGGAUCCACAUCUACGAAUUCGGCCCAUAGAGAGGUUAUCCGCUCAUUGAGAUCGGAAGAGCACACGU | 9 ± 1.2 nM |
| target 1 MT 5'PFS UAU 3'PFS UGC (mixed) RNA 1: CACCCGUGCAAAAAUGCAGGGGUCUAAAACUGAGCGGAUAACCUCUCUAUGG RNA 2: GGGAAUGGAUCCACAUCUACGAAUUCUAUCCAUAGAGAGGUUAUCCGCUCAUGCAGAUCGGAAGAGCACACGU | ~59.5 nM |
| target 1 MT 5'PFS GUG 3'PFS GCA (mixed) RNA 1: CACCCGUGCAAAAAUGCAGGGGUCUAAAACUGAGCGGAUAACCUCUCUAUGG RNA 2: GGGAAUGGAUCCACAUCUACGAAUUCGUGCCAUAGAGAGGUUAUCCGCUCAGCAAGAUCGGAAGAGCACACGU | 26 ± 4 nM |
| target 1 MT 5'PFS GCG 3'PFS UGU (mixed) RNA 1: CACCCGUGCAAAAAUGCAGGGGUCUAAAACUGAGCGGAUAACCUCUCUAUGG RNA 2: GGGAAUGGAUCCACAUCUACGAAUUCGCGCCAUAGAGAGGUUAUCCGCUCAUGUAGAUCGGAAGAGCACACGU | 41.5 ± 8.5 nM |
| target 1 MT 5'PFS UCC 3'PFS CUG (mixed) RNA 1: CACCCGUGCAAAAAUGCAGGGGUCUAAAACUGAGCGGAUAACCUCUCUAUGG RNA 2: GGGAAUGGAUCCACAUCUACGAAUUCUCCCCAUAGAGAGGUUAUCCGCUCACUGAGAUCGGAAGAGCACACGU | 14.5 ± 4.5 nM |
| target 1 insU 3' of 22,insA 3' of 5 (mixed) RNA 1: CACCCGUGCAAAAAUGCAGGGGUCUAAAACUGAGCGGAUAACCUCUCUAUGG RNA 2: GGGAAUGGAUCCACAUCUACGAAUUCGUACUCAUAGAGAGGUUAUCCGACUCACCGAGAUCGGAAGAGCACACGU | 18.8 ± 1.6 nM |
| target 1 MT 5'PFS UCC 3'PFS CUC (mixed) RNA 1: CACCCGUGCAAAAAUGCAGGGGUCUAAAACUGAGCGGAUAACCUCUCUAUGG RNA 2: GGGAAUGGAUCCACAUCUACGAAUUCUCCCCAUAGAGAGGUUAUCCGCUCACUCAGAUCGGAAGAGCACACGU | ~24 nM |
| target 1 MT 5'PFS GUC 3'PFS ACG (mixed) RNA 1: CACCCGUGCAAAAAUGCAGGGGUCUAAAACUGAGCGGAUAACCUCUCUAUGG RNA 2: GGGAAUGGAUCCACAUCUACGAAUUCGUCCCAUAGAGAGGUUAUCCGCUCAACGAGAUCGGAAGAGCACACGU | 25 ± 6.6 nM |
| target 1 MT 5'PFS GUC 3'PFS ACC (mixed) RNA 1: CACCCGUGCAAAAAUGCAGGGGUCUAAAACUGAGCGGAUAACCUCUCUAUGG RNA 2: GGGAAUGGAUCCACAUCUACGAAUUCGUCCCAUAGAGAGGUUAUCCGCUCAACCAGAUCGGAAGAGCACACGU | 25.8 ± 4.2 nM |
| target 1 MT 5'PFS GGC 3'PFS UUU (mixed) RNA 1: CACCCGUGCAAAAAUGCAGGGGUCUAAAACUGAGCGGAUAACCUCUCUAUGG RNA 2: GGGAAUGGAUCCACAUCUACGAAUUCGGCCCAUAGAGAGGUUAUCCGCUCAUUUAGAUCGGAAGAGCACACGU | 11.3 ± 1.85 nM |
| target 1 MT 5'PFS GGG 3'PFS AUU (mixed) RNA 1: CACCCGUGCAAAAAUGCAGGGGUCUAAAACUGAGCGGAUAACCUCUCUAUGG RNA 2: GGGAAUGGAUCCACAUCUACGAAUUCGGGCCAUAGAGAGGUUAUCCGCUCAAUUAGAUCGGAAGAGCACACGU | 17.3 ± 2.1 nM |
| target 1 MT 5'PFS CAC 3'PFS CUG (mixed) RNA 1: CACCCGUGCAAAAAUGCAGGGGUCUAAAACUGAGCGGAUAACCUCUCUAUGG RNA 2: GGGAAUGGAUCCACAUCUACGAAUUCCACCCAUAGAGAGGUUAUCCGCUCACUGAGAUCGGAAGAGCACACGU | ~17 nM |
| target 1 MT 5'PFS CAC 3'PFS CUA (mixed) RNA 1: CACCCGUGCAAAAAUGCAGGGGUCUAAAACUGAGCGGAUAACCUCUCUAUGG RNA 2: GGGAAUGGAUCCACAUCUACGAAUUCCACCCAUAGAGAGGUUAUCCGCUCACUAAGAUCGGAAGAGCACACGU | 16 ± 5 nM |
